This is an account of results in US20230331850A1.

One may read the Kd as a measure of binding affinity in units of concentration.

Experiment in all cases: Bio-Layer Interferometry (Precision Antibody)
A general note: BLI is a label-free optical method that tracks binding on a fibre tip over time.

Assay [1] deals with p63:IA^g7 (recombinant peptide:MHCII monomer / tetramer) (mouse).
Assay [2] addresses 2W:IA^b (recombinant peptide:MHCII monomer) (mouse) (UniProt P14434).
The target in the next assay is Eα52-68:IA^b (mouse) (UniProt P14434).

Turning to 10-2.16 MAb (anti-IA^g7) (antibody), the Kd in assay [1] amounted to 2.9 nM.

With AF6-120.1 (antibody), in assay [2], the Kd came to 7.1 nM.

With Y3P (antibody), the Kd in assay [2] is 1.9 nM.

The substance Y-Ae (anti-Eα:IA^b) (antibody) yielded a Kd in the assay with Eα52-68:IA^b (mouse) of 0.48 nM.
